# ± gives the uncertainty stated by the source.
# B1: COUP transcription factor 1, residues 83 to 159; numbered along this chain, P10589 (parent)
# chain: HIECVVCGDKSSGKHYGQFTCEGCKSFFKRSVRRNLTYTCRANRNCPIDQHHRNQCQYCRLKKCLKVGMRREAVQRG
# Variants of: B1
# Assay: abundance fitness (aPCA) (normalised: wild type 0, dead -1); higher = more abundant; growth selection in yeast, the domain comes from the species named
# Conditions: Homo sapiens
row,Variant,abundance fitness
1,HIECVVCGDKSSGKHYGQFTCEGCKSFFKRSVRRNLTYTCRANRNCPIDQHHENQCQYCRLKKCLKVGMRREAVQRG,0.018 ± 0.07
2,YIECVVCGDKSSGKHYGQFTCEGCKSFFKRSVRRNLTYTCRANRNCPIDQHHRNQCQYCRLKKCLKVGMRREAVQRG,0.262 ± 0.48
3,RIECVVCGDKSSGKHYGQFTCEGCKSFFKRSVRRNLTYTCRANRNCPIDQHHRNQCQYCRLKKCLKVGMRREAVQRG,0.013 ± 0.088
4,KIECVVCGDKSSGKHYGQFTCEGCKSFFKRSVRRNLTYTCRANRNCPIDQHHRNQCQYCRLKKCLKVGMRREAVQRG,0.374 ± 0.25
5,HIECVVCGDKSSGKHYGQFTCEGCKSFFKRSVRRNLTTTCRANRNCPIDQHHRNQCQYCRLKKCLKVGMRREAVQRG,-0.669 ± 0.17
6,HIECVVCGDKSSGKHYGQFTCEGCKSFFKRSVRRNLTYTCRANRNCPIDQHDRNQCQYCRLKKCLKVGMRREAVQRG,-0.092 ± 0.053
7,HIECVVCGDKSSGKHYRQFTCEGCKSFFKRSVRRNLTYTCRANRNCPIDQHHRNQCQYCRLKKCLKVGMRREAVQRG,-0.421 ± 0.07
8,HIECVVCGDKSSGKHYGQFTCEGCKSFFKRSVRRNLTYTCRANRNCPIDQHHRNQCQYCRLKKCLKVGRRREAVQRG,-0.737 ± 0.058
9,HIECVVCGDKSSGKHYGQFTCEGCKSFFKRSVRRNLTYTCRANRNCPIDQHHRNQCQYCRLKKCLKVGDRREAVQRG,-1.06 ± 0.22
10,HIECVVCGDKSSGTHYGQFTCEGCKSFFKRSVRRNLTYTCRANRNCPIDQHHRNQCQYCRLKKCLKVGMRREAVQRG,-0.113 ± 0.31
11,HIECVVCGDKSSGPHYGQFTCEGCKSFFKRSVRRNLTYTCRANRNCPIDQHHRNQCQYCRLKKCLKVGMRREAVQRG,0.201 ± 0.27
12,HIETVVCGDKSSGKHYGQFTCEGCKSFFKRSVRRNLTYTCRANRNCPIDQHHRNQCQYCRLKKCLKVGMRREAVQRG,-0.635 ± 0.11
13,HIECVACGDKSSGKHYGQFTCEGCKSFFKRSVRRNLTYTCRANRNCPIDQHHRNQCQYCRLKKCLKVGMRREAVQRG,-0.458 ± 0.079
14,HIECVTCGDKSSGKHYGQFTCEGCKSFFKRSVRRNLTYTCRANRNCPIDQHHRNQCQYCRLKKCLKVGMRREAVQRG,-0.743 ± 0.15
15,HIECVVCGDKSSGKHYGPFTCEGCKSFFKRSVRRNLTYTCRANRNCPIDQHHRNQCQYCRLKKCLKVGMRREAVQRG,0.079 ± 0.073
16,HIECNVCGDKSSGKHYGQFTCEGCKSFFKRSVRRNLTYTCRANRNCPIDQHHRNQCQYCRLKKCLKVGMRREAVQRG,0.152 ± 0.2
17,HIECVVCGDKSSGKHYGQFTCEGCKSFFKRSVRRNLTYTCRRNRNCPIDQHHRNQCQYCRLKKCLKVGMRREAVQRG,-0.111 ± 0.054
18,HIECVVCGDKSSGKHYGQFTCEGCKSFFKRSVRRNLTYTCRQNRNCPIDQHHRNQCQYCRLKKCLKVGMRREAVQRG,0.239 ± 0.089

row,Variant,abundance fitness
1,HIECVVCGDKSSGKHYGQFTCEGCKSFFKRSVRRNLTYTCRANRNCPIDQHHRNQCQYCRLKKCLKVGMRREAVIRG,-0.077 ± 0.059
2,HIECVVCGDKSSGKHYGQFTCEGCKSFFKRSVRRNLTYTCRANRNCPIDQHHRNQCQYCRLKKCLPVGMRREAVQRG,-0.785 ± 0.11
3,HIECVVCGDKSSGKHYGQFTCEGCKSFFKRSVRRNLTYTCRANRNCPIDQHHRNQCQYCRLKKCLTVGMRREAVQRG,0.025 ± 0.046
4,HIECVVCGDKSSGKHYGQFTCEGCKSFFKRSVRRNLTYTCRATRNCPIDQHHRNQCQYCRLKKCLKVGMRREAVQRG,-0.051 ± 0.097
5,HIECVVCGDKSSGKHYGQFTCEGCKSFFKRSVRRNLTYTCRAPRNCPIDQHHRNQCQYCRLKKCLKVGMRREAVQRG,-0.256 ± 0.17
6,HIECVVCGDKSSGKHYGQFTCEGCKSFFKRSVRRNLTYTCRALRNCPIDQHHRNQCQYCRLKKCLKVGMRREAVQRG,-0.054 ± 0.068
7,HIECVVCGDKSSGKHYGQFTCEGCKSFFKRSVRRNLTYNCRANRNCPIDQHHRNQCQYCRLKKCLKVGMRREAVQRG,0.103 ± 0.19
8,HIECVVCGDKSSGKHYGQFTCEGCKSFFKRSVRRNLTYTCRANRNCPIDQQHRNQCQYCRLKKCLKVGMRREAVQRG,0.081 ± 0.066
9,HIECVVCGDKSSGKHYGQFTCEGCKSFFKRSVRRNLTYTCRANRNCPIDQPHRNQCQYCRLKKCLKVGMRREAVQRG,-0.138 ± 0.077
10,HIECVVCGDKSSGKYYGQFTCEGCKSFFKRSVRRNLTYTCRANRNCPIDQHHRNQCQYCRLKKCLKVGMRREAVQRG,-0.144 ± 0.18
11,HIECVVCGDKSSGKHYGQFTCEGCKSFFKRSVRRNLTYTCRANRNCPIDQHHRNQCQYCRLKKCLKVGMVREAVQRG,0.032 ± 0.056
12,HIECVVCGDKSSGKHYGQFTCEGCKSFFKRSVRYNLTYTCRANRNCPIDQHHRNQCQYCRLKKCLKVGMRREAVQRG,-0.263 ± 0.22
13,HIECVVCGDKSSGKHYGQFTCEGCKSFFKRSVRPNLTYTCRANRNCPIDQHHRNQCQYCRLKKCLKVGMRREAVQRG,-0.308 ± 0.2
14,HIVCVVCGDKSSGKHYGQFTCEGCKSFFKRSVRRNLTYTCRANRNCPIDQHHRNQCQYCRLKKCLKVGMRREAVQRG,-0.536 ± 0.057
15,HIECVVCGDKSSGKHYGQFTCEGCKSFFKRSVRRNLTYTCRANRNCPIDQHHRNQCQYCRLKKELKVGMRREAVQRG,-0.831 ± 0.099
16,HIECVVCGDKSSGKHYGQFTCEGCKSFFKRSVRRNLTYTCRANRNCPIDQHHRNQCQYCRLMKCLKVGMRREAVQRG,-0.003 ± 0.049
17,HIECVVCGDKSSGKHYGQFTCEGCKSFGKRSVRRNLTYTCRANRNCPIDQHHRNQCQYCRLKKCLKVGMRREAVQRG,-1.05 ± 0.1
18,HIECVVCGDKSSGKHYGQFTCEGCKSFFKRSVRRNLTYTCRANRNCPIDQHHRNQTQYCRLKKCLKVGMRREAVQRG,-1.13 ± 0.31
